Target: T1, human γc-subunit (common γ subunit, CD132) (human, UniProt P31785 23-369)
T1 sequence (looked up): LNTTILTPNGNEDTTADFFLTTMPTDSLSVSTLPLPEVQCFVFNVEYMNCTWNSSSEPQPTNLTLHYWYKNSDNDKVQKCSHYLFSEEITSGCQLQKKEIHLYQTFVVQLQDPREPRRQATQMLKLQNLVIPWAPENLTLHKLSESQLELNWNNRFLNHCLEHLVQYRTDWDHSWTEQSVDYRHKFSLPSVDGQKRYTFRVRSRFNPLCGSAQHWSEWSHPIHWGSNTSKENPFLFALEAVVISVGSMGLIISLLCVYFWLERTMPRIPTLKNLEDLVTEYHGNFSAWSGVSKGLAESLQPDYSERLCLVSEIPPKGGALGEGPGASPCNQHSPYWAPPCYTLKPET
Assay: cell-based or functional assay

IC50 on IL-2/IL-15-induced (0.1 nM each) proliferation of ex vivo human T-lymphocytes: 150 nM
Binder: IKEFLQRFIHIVQSIINTS [BNZ132-1]

From patent US20180237475A1 (BIONIZ, published 2018)
